From patent publication US6328728A, “Composition and method for enhancing electrotransport agent delivery” (Alza Corporation, priority 1997, dated 2001) come the findings set out here.

The nature of this data set: Hydrophobicity by hydrophobic interaction chromatography (HIC), phenyl Superose column (retention time, ta/tm). Format: physicochemical. To be noted: for HIC Column Retention Time: pH 5.0, 4 mM piperazine-HCl; for HIC Column Retention Time / HIC Retention Time: 32° C. As for the experimental part:
The hydrophobicity of an agent (eg, an agent such as a polypeptide or protein in solution, as well as the relative increase or decrease thereof) is determined by passing the agent-containing solution through a chromatography column filled with a particular "hydrophobic interaction" bead material and measuring either (1) the time required for the agent to elute (ie, pass through) the column or (2) the volume of liquid (ie, the same liquid used in the agent-containing sample, but with the agent removed) required to be pumped through the column in order to elute the agent. For the purposes of the present invention, the hydrophobicity of an agent is defined in terms relative to the marker compound, N-acetyl tryptophanamide (sold by Sigma Chemical, St. Louis, Mo.), which has a somewhat moderate hydrophobicity. Hydrophobicity, as that term is used herein, is measured using a 5 mm diameter glass column having a length of 5 cm (ie, column volume of 1.0 mL) and packed with cross-linked agar beads having an average particle size of 13.5 μm. Examples of suitable hydrophobic bead materials include cross-linked agar gel beads (Superose 12) having hydrophobic ligands attached to the agar via chemically stable ether linkages ((Superose 12)--O--CH2 --CHOH--CH2 --O--R) such as alkyl-Superose wherein R is --CH2 --C(CH3)3 and phenyl-Superose wherein R is phenyl, both of which are sold in pre-packaged column form by Pharmacia Biotech, Inc. of Piscataway, N.J. Immediately downstream from the column is placed a flow cell which permits continuous UV absorbance measurements of the solution flowing out of the column. Suitable flow cells and UV absorbance detectors are sold by Perkin-Elmer Corp., Applied Biosystems, Foster City, Calif. Hydrophobicity measurements are conducted at 32° C. with the same buffer that is used in the electrotransport system which is used to deliver the agent (eg, transdermally) to the patient. The buffer strength used in the hydrophobicity measurements is 10 mM ionic strength. The term "certain hydrophobicity" as used herein, means that the time required for the agent to elute from the column, relative to the time required for N-acetyl tryptophanamide to elute, is as follows:
ta /tm >0.7, and preferably ta /tm >3
ta is the time at which the peak UV absorbance value is recorded for the beneficial agent in the flow cell, less the time required to initially fill the column with the agent-containing solution (ie, dead volume retention time); and
tm is the time at which the peak UV absorbance value is recorded for the N-acetyl tryptophanamide marker in the flow cell, less the time required to initially fill the column with the marker-containing solution (ie, dead volume retention time).
The above described measurement of agent hydrophobicity is substantially independent of column size and flow rate through the column.
One method of measuring the hydrophobicity of an agent such as a polypeptide or protein is by hydrophobic interaction chromatography (HIC). The principles and conditions associated with HIC are fully described in Protein Purification: Principles, High Resolution Methods, and Applications, Janson and Ryden, Eds., pp. 207-226 (1989), the pertinent portions of which are incorporated herein by reference. This method requires passing a composition through a hydrophobic interaction column and measuring the volume of solvent required for its complete elution. The hydrophobic sites on the agent are generally attracted to hydrophobic groups, such as aryl groups, affixed to beads placed within the column. A preferred HIC column material is phenyl-superose (Pharmacia, Sweden), a cross-linked polysaccharide which has been covalently modified to have pendant hydrophobic aryl groups. These pendant groups are similar to the hydrophobic or lipophilic species in the skin layers. Thus, this hydrophobic interaction column approximates, and is a good in vitro model for, an animal's skin layer as a barrier to transport of a polypeptide or protein. […]

Where [1] appears, read: pH 3.5, 10 mM sodium chloroacetate, TWEEN 20 0.
Setting [2] is: pH 3.5, 10 mM sodium chloroacetate, TWEEN 20 1.5 mg/mL.
The mark [3] stands for this setting: pH 3.5, 10 mM sodium chloroacetate, TWEEN 20 2.66 mM.
Setting [4] is: pH 3.5, 10 mM sodium chloroacetate, TWEEN 20 5.33 mM.
Where [5] appears, read: pH 3.5, 10 mM sodium chloroacetate, TWEEN 20 6.66 mM.
[6] abbreviates: pH 3.5, 10 mM sodium chloroacetate, TWEEN 20 8.88 mM.
The mark [7] stands for this setting: pH 9.0, 10 mM sodium borate, TWEEN 20 0.
[8] abbreviates: pH 9.0, 10 mM sodium borate, TWEEN 20 1.5 mg/mL.
Setting [9] is: pH 9.0, 10 mM sodium borate, TWEEN 20 2.66 mM.
Where [10] appears, read: pH 9.0, 10 mM sodium borate, TWEEN 20 6.0 mg/mL.
The mark [11] stands for this setting: pH 9.0, 10 mM sodium borate, TWEEN 20 8.88 mM.

Salmon Calcitonin [reference compound]: the “HIC Column Retention Time” value is, setting by setting: (dodecyl sulfobetaine 0, calcitonin 0.076 mM) 9.4 min; (dodecyl sulfobetaine 0.83 mM, calcitonin 0.076 mM) 12.4 min; (dodecyl sulfobetaine 3.23 mM, calcitonin 0.074 mM) 87.1 min; (dodecyl sulfobetaine 6.25 mM, calcitonin 0.072 mM) 64.1 min; (dodecyl sulfobetaine 9.77 mM, calcitonin 0.069 mM) 45.1 min; (dodecyl sulfobetaine 18.4 mM, calcitonin 0.062 mM) 28.8 min. The “HIC Column Retention Time” value (dodecyl sulfobetaine 26.4 mM, calcitonin 0.056 mM) came to 24.4 min.
Regarding “Insulinotropin: the protein insulinotropin”, the “HIC Retention Time” value was found to be 57.6 min under setting [1]; 25.6 min under setting [2]; 11.5 min under setting [3]; 6.1 min under setting [4]; 6.0 min under setting [5]; 4.4 min under setting [6]. Further, the “HIC Retention Time” value was determined as 10.1 min under setting [7]; 9.4 min under setting [8]; 6.4 min under setting [9]; 4.8 min under setting [10]; 3.8 min under setting [11]. The “HIC Retention Time, fractional change (% δ)” value runs as follows: under setting [1], 0; under setting [2], 0.60; under setting [3], 0.87; under setting [4], 0.97; under setting [5], 0.97; under setting [6], 1.00. For the same substance, the “HIC Retention Time, fractional change (% δ)” value was 0 under setting [7]; 0.11 under setting [8]; 0.59 under setting [9]; 0.84 under setting [10]; 1.00 under setting [11].
